What was measured:
[1] = molecular target: T1, Human TFPI (tissue factor pathway inhibitor) (human, UniProt P10646 29-304, limits assumed); test: ELISA on plate-coated human TFPI; Fab expression media bound, then 1 h at 37 C in PBS pH 7.0; amplex red
T1 construct: Coated at 1 ug/ml on Maxisorb plates for the ELISA; For the Biacore work the human TFPI came from American Diagnostica
T1 sequence (looked up): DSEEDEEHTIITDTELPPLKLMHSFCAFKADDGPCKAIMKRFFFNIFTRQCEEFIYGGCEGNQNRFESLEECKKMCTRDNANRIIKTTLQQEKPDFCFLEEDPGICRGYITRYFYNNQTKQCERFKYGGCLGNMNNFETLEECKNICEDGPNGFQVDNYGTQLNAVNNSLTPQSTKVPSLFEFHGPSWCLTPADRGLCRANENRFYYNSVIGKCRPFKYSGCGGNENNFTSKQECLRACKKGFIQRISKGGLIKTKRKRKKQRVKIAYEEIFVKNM
Description: (§1) Human TFPI, 1 μg/ml, was used to coat Maxisorb™ microtiter plates. Expression media, 100 μl, from each member of the His scan library, was added to two wells on the plate, in a pair wise fashion. The plate was incubated on a shaker at room temperature for 1 hr. The plate was washed 3× with PBST. PBS (pH 7.0) was added to one well of the pair, 100 mM pH6.0 Citrate buffer was added to the second well of the same pair. The plate was incubated at 37° C. with shaking for one hr. The plate was washed 3× with PBST and developed using amplex red. A pH 7.0/pH 6.0 ratio was established to rank the sensitive muteins. The ratio for wild type 2A8-g200 Fab was 1.0.

[2] = molecular target: T1, Human TFPI (tissue factor pathway …); test: pH 6.0 TFPI dissociation ELISA; ratio of the signals at pH 7.0 and pH 6.0
Description: as §1

[3] = molecular target: T1, Human TFPI (tissue factor pathway …); test: ELISA on plate-coated human TFPI; Fab expression media bound, then 1 h at 37 C in 100 mM citrate pH 6.0; amplex red
Description: as §1

[4] = molecular target: T1, Human TFPI (tissue factor pathway …); test: SPR (Biacore T200): human TFPI amine-coupled on a CM4 or CM5 chip, Fab variant injected, dissociation followed in pH 7.4 or pH 6.0 buffer
Description: Purified 2A8-g200 variants in Fab format (referred to as wt gA200Fab in Table 1) were tested using surface plasmon resonance (Biacore). Surface plasmon resonance (Biacore T200) was used to measure the dissociation rate of the antibodies. […] Purified 2A8-g200 variants were injected, following by 40-minute dissociation either at pH7.4 or pH6.0 buffer. The antibodies were diluted in HBS-P buffer at different concentrations and the flow rate was set to 50 μl/min. After each round of antibody injection, the chip was regenerated by injecting 90 μl of pH 1.5 glycine. The data set was evaluated using BIAevaluation Software.
The dissociation constant (kd) for each 2A8-g200 variant antibody was determined by using a model with the following equation: […]
where R is the response at time t, R₀ is the response at time t_{0.}—the start of dissociation, offset allows for a residual response at the end of complete dissociation. A ratio of kd at pH 6.0 to kd at pH 7.4 was calculated for each 2A8-g200 variant. A mutation with observed ratio of […] was considered as pH-sensitive mutation and could be used for construction of IgG variants of 2A8-g200.

B1: 2A8-g200 Fab (wild type) (Fab, V domains shown)
VH: EVQLVESGGGLVQPGGSLRLSCAASGFTFSSYGMDWVRQAPGKGLEWVSSIRGSRGSTYYADSVKGRFTISRDNSKNTLYLQMNSLRAEDTAVYYCARLYRYWFDYWGQGTLVTVSS
VL: SYELTQPPSVSVSPGQTARITCSGDNLPKYYAHWYQQKPGQAPVVVIFYDVNRPSGIPERFSGSNSGNTATLTISGTQAMDEADYYCQAWWSSTPVFGGGTKLTVLG
notes: Fab format, expressed in E. coli; also called wt gA200Fab; wild type 2A8-g200 Fab
TFPI ELISA signal, pH 7.0 [1]: 5250
Ratio pH 7.0/pH 6.0 [2]: 0.98
TFPI ELISA signal, pH 6.0 [3]: 5350

B2: 2A8-g200 Fab VH-S50H (Fab, V domains shown)
VH: EVQLVESGGGLVQPGGSLRLSCAASGFTFSSYGMDWVRQAPGKGLEWVSHIRGSRGSTYYADSVKGRFTISRDNSKNTLYLQMNSLRAEDTAVYYCARLYRYWFDYWGQGTLVTVSS
VL: SYELTQPPSVSVSPGQTARITCSGDNLPKYYAHWYQQKPGQAPVVVIFYDVNRPSGIPERFSGSNSGNTATLTISGTQAMDEADYYCQAWWSSTPVFGGGTKLTVLG
TFPI ELISA signal, pH 7.0 [1]: 2160
Ratio pH 7.0/pH 6.0 [2]: 1.32
TFPI ELISA signal, pH 6.0 [3]: 1640

B3: 2A8-g200 Fab VH-Y32H (Fab, V domains shown)
VH: EVQLVESGGGLVQPGGSLRLSCAASGFTFSSHGMDWVRQAPGKGLEWVSSIRGSRGSTYYADSVKGRFTISRDNSKNTLYLQMNSLRAEDTAVYYCARLYRYWFDYWGQGTLVTVSS
VL: SYELTQPPSVSVSPGQTARITCSGDNLPKYYAHWYQQKPGQAPVVVIFYDVNRPSGIPERFSGSNSGNTATLTISGTQAMDEADYYCQAWWSSTPVFGGGTKLTVLG
notes: Member of the 2A8-g200 Fab histidine scanning library
TFPI ELISA signal, pH 7.0 [1]: 3560
Ratio pH 7.0/pH 6.0 [2]: 1.38
TFPI ELISA signal, pH 6.0 [3]: 2580

B4: 2A8-g200 Fab VH-Y100H (Fab, V domains shown)
VH: EVQLVESGGGLVQPGGSLRLSCAASGFTFSSYGMDWVRQAPGKGLEWVSSIRGSRGSTYYADSVKGRFTISRDNSKNTLYLQMNSLRAEDTAVYYCARLHRYWFDYWGQGTLVTVSS
VL: SYELTQPPSVSVSPGQTARITCSGDNLPKYYAHWYQQKPGQAPVVVIFYDVNRPSGIPERFSGSNSGNTATLTISGTQAMDEADYYCQAWWSSTPVFGGGTKLTVLG
notes: as for B3
TFPI ELISA signal, pH 7.0 [1]: 2540
Ratio pH 7.0/pH 6.0 [2]: 1.78
TFPI ELISA signal, pH 6.0 [3]: 1430

B5: 2A8-g200 Fab VH-Y102H (Fab, V domains shown)
VH: EVQLVESGGGLVQPGGSLRLSCAASGFTFSSYGMDWVRQAPGKGLEWVSSIRGSRGSTYYADSVKGRFTISRDNSKNTLYLQMNSLRAEDTAVYYCARLYRHWFDYWGQGTLVTVSS
VL: SYELTQPPSVSVSPGQTARITCSGDNLPKYYAHWYQQKPGQAPVVVIFYDVNRPSGIPERFSGSNSGNTATLTISGTQAMDEADYYCQAWWSSTPVFGGGTKLTVLG
notes: as for B3
TFPI ELISA signal, pH 7.0 [1]: 3310
Ratio pH 7.0/pH 6.0 [2]: 3.07
TFPI ELISA signal, pH 6.0 [3]: 1080

B6: 2A8-g200 Fab VL-F48H (Fab, V domains shown)
VH: EVQLVESGGGLVQPGGSLRLSCAASGFTFSSYGMDWVRQAPGKGLEWVSSIRGSRGSTYYADSVKGRFTISRDNSKNTLYLQMNSLRAEDTAVYYCARLYRYWFDYWGQGTLVTVSS
VL: SYELTQPPSVSVSPGQTARITCSGDNLPKYYAHWYQQKPGQAPVVVIHYDVNRPSGIPERFSGSNSGNTATLTISGTQAMDEADYYCQAWWSSTPVFGGGTKLTVLG
notes: as for B3
TFPI ELISA signal, pH 7.0 [1]: 2070
Ratio pH 7.0/pH 6.0 [2]: 1.33
TFPI ELISA signal, pH 6.0 [3]: 1550

B7: 2A8-g200 Fab VL-L27H (Fab, V domains shown)
VH: EVQLVESGGGLVQPGGSLRLSCAASGFTFSSYGMDWVRQAPGKGLEWVSSIRGSRGSTYYADSVKGRFTISRDNSKNTLYLQMNSLRAEDTAVYYCARLYRYWFDYWGQGTLVTVSS
VL: SYELTQPPSVSVSPGQTARITCSGDNHPKYYAHWYQQKPGQAPVVVIFYDVNRPSGIPERFSGSNSGNTATLTISGTQAMDEADYYCQAWWSSTPVFGGGTKLTVLG
notes: as for B3
TFPI ELISA signal, pH 7.0 [1]: 3420
Ratio pH 7.0/pH 6.0 [2]: 1.3
fold (x) printed after the variant's name; the sheet does not name it, paragraph 57 speaks of the ratio of kd at pH 6.0 to kd at pH 7.4 [4]: 2.7 x
TFPI ELISA signal, pH 6.0 [3]: 2640

B8: 2A8-g200 Fab VL-V45H (Fab, V domains shown)
VH: EVQLVESGGGLVQPGGSLRLSCAASGFTFSSYGMDWVRQAPGKGLEWVSSIRGSRGSTYYADSVKGRFTISRDNSKNTLYLQMNSLRAEDTAVYYCARLYRYWFDYWGQGTLVTVSS
VL: SYELTQPPSVSVSPGQTARITCSGDNLPKYYAHWYQQKPGQAPVHVIFYDVNRPSGIPERFSGSNSGNTATLTISGTQAMDEADYYCQAWWSSTPVFGGGTKLTVLG
notes: as for B3
TFPI ELISA signal, pH 7.0 [1]: 2200
Ratio pH 7.0/pH 6.0 [2]: 1.24
TFPI ELISA signal, pH 6.0 [3]: 1770

B9: 2A8-g200 Fab VL-W90H (Fab, V domains shown)
VH: EVQLVESGGGLVQPGGSLRLSCAASGFTFSSYGMDWVRQAPGKGLEWVSSIRGSRGSTYYADSVKGRFTISRDNSKNTLYLQMNSLRAEDTAVYYCARLYRYWFDYWGQGTLVTVSS
VL: SYELTQPPSVSVSPGQTARITCSGDNLPKYYAHWYQQKPGQAPVVVIFYDVNRPSGIPERFSGSNSGNTATLTISGTQAMDEADYYCQAHWSSTPVFGGGTKLTVLG
notes: as for B3
TFPI ELISA signal, pH 7.0 [1]: 1830
Ratio pH 7.0/pH 6.0 [2]: 1.21
TFPI ELISA signal, pH 6.0 [3]: 1510

B10: 2A8-g200 Fab VL-Y31H (Fab, V domains shown)
VH: EVQLVESGGGLVQPGGSLRLSCAASGFTFSSYGMDWVRQAPGKGLEWVSSIRGSRGSTYYADSVKGRFTISRDNSKNTLYLQMNSLRAEDTAVYYCARLYRYWFDYWGQGTLVTVSS
VL: SYELTQPPSVSVSPGQTARITCSGDNLPKYHAHWYQQKPGQAPVVVIFYDVNRPSGIPERFSGSNSGNTATLTISGTQAMDEADYYCQAWWSSTPVFGGGTKLTVLG
notes: as for B3
TFPI ELISA signal, pH 7.0 [1]: 913
Ratio pH 7.0/pH 6.0 [2]: 6.84
fold (x) printed after the variant's name; the sheet does not name it, paragraph 57 speaks of the ratio of kd at pH 6.0 to kd at pH 7.4 [4]: 3.2 x
TFPI ELISA signal, pH 6.0 [3]: 133

B11: 2A8-g200 Fab VL-Y49H (Fab, V domains shown)
VH: EVQLVESGGGLVQPGGSLRLSCAASGFTFSSYGMDWVRQAPGKGLEWVSSIRGSRGSTYYADSVKGRFTISRDNSKNTLYLQMNSLRAEDTAVYYCARLYRYWFDYWGQGTLVTVSS
VL: SYELTQPPSVSVSPGQTARITCSGDNLPKYYAHWYQQKPGQAPVVVIFHDVNRPSGIPERFSGSNSGNTATLTISGTQAMDEADYYCQAWWSSTPVFGGGTKLTVLG
notes: as for B3
TFPI ELISA signal, pH 7.0 [1]: 2660
Ratio pH 7.0/pH 6.0 [2]: 1.3
TFPI ELISA signal, pH 6.0 [3]: 2040

From patent US20180282430A1 (Bayer, published 2018)
